Test results from publication PMC8158265, “Inhibition of catechol-O-methyltransferase by natural pentacyclic triterpenes: structure–activity relationships and kinetic mechanism” (Journal of Enzyme Inhibition and Medicinal Chemistry, 2021).

Substrate: O=c1oc2c(O)c(O)ccc2cc1-c1nc2ccccc2s1
Assay: Inhibition kinetics of human S-COMT catalysed O-methylation of 3-BTD
Assay type: biochemical
Settings: other: 3-BTD as substrate, no inhibitor; pH 7.4; 37.0 °C

B1: recombinant human S-COMT (Homo sapiens) (protein)
chain: MGDTKEQRILNHVLQHAEPGNAQSVLEAIDTYCEQKEWAMNVGDKKGKIVDAVIQEHQPSVLLELGAYCGYSAVRMARLLSPGARLITIEINPDCAAITQRMVDFAGVKDKVTLVVGASQDIIPQLKKKYDVDTLDMVFLDHWKDRYLPDTLLLEECGLLRKGTVLLADNVICPGAPDFLAHVRGSSCFECTHYQSFLEYREVVDGLEKAIYKGPGSEAGP
notes: made in house
  Km: 0.38 ± 0.029 µM
  Vmax: 13.8 ± 0.30 nmol/min/mg protein
